# Measured values from US20240279622A1, “COELENTERAZINE-UTILIZING LUCIFERASES WITH STABLE GLOW-TYPE LIGHT EMISSION AND METHODS OF PRODUCING AND USING THEREOF” (MASARYKOVA UNIVERZITA, priority 2021, published 2024).
# B1: Super RLuc8: Recently reported RLuc8 enzyme variant (Rahnama et el., 2017) (protein)
# chain: MTSKVYDPEQRKRMITGPQWWARCKQMNVLDSFINYYDSEKHAENAVIFLHGNATSSYLWRHVVPHIEPVARCIIPDLIGMGKSGKSGNGSYRLLDHYKYLTAWFELLNLPKKIIFVGHDWGSALAFHYAYEHQDRIKAIVHMESVVDVIESWKNWPDIEEELALIKSEEGEKMVLENNFFVETVLPSVIMRKLEPEEFAAYLEPFKEKGEVRRPTLSWPREIPLVKGGKPDVVQIVRNYNAYLRASDDLPKLFIESDPGWFSNAIIEGAKKFPNTEFVKVKGLHFLQEDAPDEMGKYIKSFVERVLKNEQ
# modifications: Super RLuc8
# B2: AncFT: Ancestral protein AncHLD-RLuc with the L9-α4 region transplanted from RLuc; glow-type coelenterazine-utilizing luciferase (protein)
# chain: MVSASQRTTSTATGDEWWAKCKQVDVLDSEMSYYDSDPGKHKNTVIFLHGNPTSSYLWRNVIPHVEPLARCLAPDLIGMGKSGKLPNHSYRFVDHYRYLSAWFDSVNLPEKVTIVCHDWGSGLGFHWCNEHRDRVKGIVHMESVVDVIESWDEWPDIEEDIALIKSEAGEEMVLKKNFFIERLLPSSIMRKLSEEEMDAYREPFVEPGESRRPTLTWPREIPIKGDGPEDVIEIVKSYNKWLSTSKDIPKLFINADPGFFSNAIKKVTKNWPNQKTVTVKGLHFLQEDSPEEIGEAIADFLNELTK
# modifications: Amino acid sequence of AncFT
# B3: AncFT-D160A: AncFT carrying the single-point D160A mutation; blue-shifted emission (protein)
# chain: MVSASQRTTSTATGDEWWAKCKQVDVLDSEMSYYDSDPGKHKNTVIFLHGNPTSSYLWRNVIPHVEPLARCLAPDLIGMGKSGKLPNHSYRFVDHYRYLSAWFDSVNLPEKVTIVCHDWGSGLGFHWCNEHRDRVKGIVHMESVVDVIESWDEWPDIEEAIALIKSEAGEEMVLKKNFFIERLLPSSIMRKLSEEEMDAYREPFVEPGESRRPTLTWPREIPIKGDGPEDVIEIVKSYNKWLSTSKDIPKLFINADPGFFSNAIKKVTKNWPNQKTVTVKGLHFLQEDSPEEIGEAIADFLNELTK
# modifications: Amino acid sequence of AncFT-D160A
# notes: AncFT carrying the single-point D160A mutation; blue-shifted emission
# B4: AncFT-L14: AncFT with additionally transplanted L14 loop (LVKGGKP at positions 223 to 229) from RLuc (protein)
# chain: MVSASQRTTSTATGDEWWAKCKQVDVLDSEMSYYDSDPGKHKNTVIFLHGNPTSSYLWRNVIPHVEPLARCLAPDLIGMGKSGKLPNHSYRFVDHYRYLSAWFDSVNLPEKVTIVCHDWGSGLGFHWCNEHRDRVKGIVHMESVVDVIESWDEWPDIEEDIALIKSEAGEEMVLKKNFFIERLLPSSIMRKLSEEEMDAYREPFVEPGESRRPTLTWPREIPLVKGGKPDVIEIVKSYNKWLSTSKDIPKLFINADPGFFSNAIKKVTKNWPNQKTVTVKGLHFLQEDSPEEIGEAIADFLNELTK
# modifications: Amino acid sequence of AncFT-L14
# notes: AncFT with additionally transplanted L14 loop (LVKGGKP at positions 223 to 229) from RLuc
# Columns and labels:
# [1] = Steady-state kinetic analysis of full-conversion cumulative luminescence curves; type: biochemical; conditions: for kcat / Kd: 100 mM phosphate buffer pH 7.5, 37° C.; for Kd: read-out: Kp (equilibrium dissociation constant for enzyme-product complex); for Glow-type effectivity: kcat/Km divided by Km/Kp; for Decrease of ratio Km/Kp: compared to the other tested variants
# Procedure: Each luminescence trace was measured in 3 repetitions. The concentration of coelenterazine in the final reaction mixture ranged from 0.2 to 7.9 μM while the concentration of luciferase enzymes ranged from 17 to 640 nM.
# An updated protocol applying new standards for collecting and fitting steady-state kinetic data was used. Unlike the classical initial velocity analysis, which requires a sophisticated luminometer calibration and quantum yield evaluation, luminescence data were recorded when letting the reaction proceed to completion beyond the initial linear phase. The recorded luminescence traces (rate vs. time) were transformed to reaction progress curves corresponding to cumulative luminescence in time. The transformed kinetic data (product vs. time) were fitted globally with the KinTek Explorer (KinTek Corporation, USA). The software allows for the input of a given kinetic model via a simple text description, and the program then derives the differential equations needed for numerical integration automatically.
# Numerical integration of rate equations searching a set of kinetic parameters that produce a minimum χ^2 value was performed using the Bulirsch-Stoer algorithm with adaptive step size, and nonlinear regression to fit data was based on the Levenberg-Marquardt method. To account for fluctuations in experimental data, enzyme or substrate concentrations were slightly adjusted (5%) to derive best fits. Residuals were normalized by sigma values for each data point. The standard error was calculated from the covariance matrix during nonlinear regression. In addition to standard error values, more rigorous analysis of the variation of the kinetic parameters was accomplished by confidence contour analysis by using FitSpace Explorer (KinTek Corporation, USA). In these analyses, the lower and upper limits for each parameter were derived from the confidence contour obtained from setting χ^2 threshold at 0.9. The scaling factor, relating luminescence signal to product concentration, was applied as one of the fitted parameters, well constrained by end-point levels of kinetic traces recorded at particular substrate concentrations. Depletion of the available substrate after the reaction was ensured by repeated injection of the fresh enzyme.
# The steady-state model, described by Equation (4), was used to obtain the values of turnover number kcat, Michaelis constant Km, and equilibrium dissociation constant for enzyme-product complex Kp. A conservative estimate for diffusion-limited substrate and product binding k1 and k3 (100 μM^−1·s^−1) was used as a fixed value to mimic the rapid equilibrium assumption. An alternative form of the model, described by Equation (5), was used to obtain estimates of kcat/Km directly by setting k−1=0.
# [2] = Thermal unfolding by NanoDSF (tryptophan fluorescence); type: physicochemical; conditions: 100 mM potassium phosphate buffer pH 7.5, 1° C./min
# Procedure: Thermal unfolding was studied using NanoDSF Prometheus (NanoTemper, Germany) by monitoring tryptophan fluorescence over the temperature range of 20 to 90° C., at a heating rate of 1° C./min. The melting temperatures (Tonset and Tm) were evaluated directly by ThermControl v2.0.2.
# [3] = Anaerobic equilibrium binding of coelenteramide product (fluorescence); conditions: pH 7.5, 30° C., read-out: Dissociation constant Kd, Coelenteramide product
# Procedure: The experiments were performed under strictly anaerobic conditions to prevent enzymatic oxidation of interacting ligands. To do so, all the equipment and material, including water, buffer, pipettes, tips, syringes, microplates, and sealing, were made anaerobic by incubating them overnight in the anaerobic glovebox Belle MR2 (Belle Technology, UK). The box was filled with ultra-high purity (UHP) nitrogen atmosphere containing the residual oxygen concentration of 2.3 ppm, as determined by the oxygen meter O2M-3 (Belle Technology, UK). Liquids were aliquoted to the volume of maximally 50 mL and were stirred overnight in the box to release any dissolved oxygen. […] If no light was observed and the mixture remained yellow even after a minute, all the reagents were ready for anaerobic measurements.
# (§1) In the anaerobic glovebox, 200 μL of a differently concentrated enzyme was put into a separate well in a microplate and into each of these wells, 5 μL of coelenterazine or coelenteramide stock solution was added. […] The extent of coelenterazine binding at each concentration was determined by measuring fluorescence spectra ranging from 480 to 580 nm upon excitation at 420 nm using the microplate spectrophotometer Varioskan LUX (Thermo Scientific, USA). Binding of coelenteramide was monitored by measuring fluorescence spectra ranging from 350 to 700 nm upon excitation at 330 nm. […]
# [4] = Anaerobic equilibrium binding of coelenterazine substrate (fluorescence)
# Procedure: The experiments were performed under strictly anaerobic conditions to prevent enzymatic oxidation of interacting ligands. To do so, all the equipment and material, including water, buffer, pipettes, tips, syringes, microplates, and sealing, were made anaerobic by incubating them overnight in the anaerobic glovebox Belle MR2 (Belle Technology, UK). The box was filled with ultra-high purity (UHP) nitrogen atmosphere containing the residual oxygen concentration of 2.3 ppm, as determined by the oxygen meter O2M-3 (Belle Technology, UK). Liquids were aliquoted to the volume of maximally 50 mL and were stirred overnight in the box to release any dissolved oxygen. Two hours prior to the experiment, a closed bottle with an evacuated lyophilized enzyme (oxygen depleted) was put into the glovebox, dissolved with anaerobic water, and incubated to remove any remaining oxygen possibly dissolved in the solution. Similarly, the stock solution of coelenterazine or coelenteramide in ethanol, which was long-term stored in a freezer under the nitrogen atmosphere without oxygen, was put into the glovebox in a closed bottle. A small aliquot of coelenterazine/coelenteramide was transferred into a new empty bottle and kept open for about 20 minutes to remove the remaining dissolved oxygen. After the incubation, a few microliters of an enzyme were mixed with the same amount of coelenterazine, and the mixture was visually inspected for any possible bioluminescence. If no light was observed and the mixture remained yellow even after a minute, all the reagents were ready for anaerobic measurements.
# as §1, with “added. As a blank, 200 μL of the enzyme was mixed with 5 μL of ethanol for each enzyme concentration.” for “added.”
# The obtained fluorescence spectra were visually inspected for characteristic peaks, and the value of the maximal fluorescence intensity Fluomax at these peaks was plotted against the enzyme concentration. The final value of the dissociation constant Kd was determined by fitting the dependence with the hyperbolic Equation (8) using the software Origin 6.1 (OriginLab, USA).
# [5] = Stopped-flow pre-steady-state kinetics of substrate binding (tryptophan fluorescence quenching); conditions: 15° C.
# Procedure: The measurement was performed at 15° C. in 100 mM potassium phosphate buffer pH 7.5. Rapid mixing of the components was achieved using the Stopped-Flow SFM 3000 combined with the MOS-500 spectrometer (BioLogic, France). The reaction was initiated by mixing 75 μL of an enzyme with 75 μL of coelenterazine and then monitored by the change of native tryptophan fluorescence (295 nm excitation, 340±13 nm emission). The fluorescence changes were caused by the quenching effect of the coelenterazine substrate upon its binding by an enzyme. The experiment was designed in two different modes, varying either the concentration of the coelenterazine substrate or the concentration of an enzyme. Each kinetic trace was measured in seven consecutive replicates and averaged. The concentration of coelenterazine in the final reaction mixture ranged from 0.9 to 90 μM while the concentration of luciferase enzymes ranged from 0.4 to 94 μM.
# The collected double-exponential kinetic traces were fitted globally with the KinTek Explorer (KinTek Corporation, USA). The software allows for the input of a given kinetic model via a simple text description, and the program then derives the differential equations needed for numerical integration automatically. Numerical integration of rate equations searching a set of kinetic parameters that produce a minimum χ^2 value was performed using the Bulirsch-Stoer algorithm with adaptive step size, and nonlinear regression to fit data was based on the Levenberg-Marquardt method. Residuals were normalized by sigma values for each data point. The standard error was calculated from the covariance matrix during nonlinear regression. In addition to standard error values, more rigorous analysis of the variation of the kinetic parameters was accomplished by confidence contour analysis by using FitSpace Explorer (KinTek Corporation, USA). In these analyses, the lower and upper limits for each parameter were derived from the confidence contour obtained from setting the χ^2 threshold at 0.95.
# The time-course of the fluorescence quenching upon substrate binding was described with Equation (7) according to the induced-fit binding mechanism and the mechanism was fit directly to the collected kinetic data to obtain the values of elementary rate constants describing the substrate binding process. The quality of the best fits was compared in terms of χ^2 values, “chi-by-eye” assessment, and confidence contour analysis assessing constraint and independency of the determined parameters which confirmed that the obtained values are well-defined by the collected kinetic data.
Molecule,kcat [1] [s⁻¹],Kd [1] [nM],Glow-type effectivity [1],Tm [2] [°C],Tonset [2] [°C],Kd [3] [nM],"Kd ([4]; anaerobic, pH 7.5, 30° C., read-out: Dissociation constant Kd, Coelenterazine substrate) [nM]",Kd ratio substrate/product ([4]; ratio),Decrease of ratio Km/Kp [1] [fold],k+2 ([5]; pH 7.5) [s⁻¹],k−1 ([5]; pH 7.5) [s⁻¹],k−2 ([5]; pH 7.5) [s⁻¹],"k+1 ([5]; pH 7.5, induced-fit binding mechanism) [M⁻¹ s⁻¹]",Improvement of glow-type effectivity ([1]; compared to AncFT) [fold],Improvement of glow-type effectivity ([1]; compared to RLuc8)
B1,6.49 ± 0.05,920 ± 10,0.17 ± 0.02,50.1 ± 0.2,39.1 ± 0.3,–,–,–,–,–,–,–,–,–,–
B2,0.111 ± 0.001,500 ± 100,12 ± 3,56.6 ± 0.1,50.5 ± 0.1,16000 ± 2000,12000 ± 5000,0.7 ± 0.3,10,31.9 ± 1.1,367 ± 5,27.5 ± 0.4,5.21e+06 ± 70000,–,–
B3,0.339 ± 0.001,230 ± 10,3.6 ± 0.3,57.9 ± 0.1,51.5 ± 0.1,–,–,–,10,–,–,–,–,–,–
B4,0.168 ± 0.001,550 ± 30,48 ± 6,47.0 ± 0.1,39.8 ± 0.2,–,–,–,10,–,–,–,–,4,more than 20 fold
